Experimental data: the nanobody polyreactivity screen of Harvey et al. (2022)

Experiment: yeast display, Sf9 membrane polyspecificity reagent, FACS + sequencing; frameworks hold sequencing errors
Summary of the method: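 A synthetic nanobody library was expressed on Saccharomyces cerevisiae BJ5465 by galactose induction for 36–48 hours. The library was stained for 1 hour at 4 °C with 10% biotinylated, detergent-solubilized Sf9 membrane reagent and enriched with streptavidin microbeads before FACS. Low and high (top ~1%) gates were set on anti-HA fluorescence for expression and streptavidin fluorescence for reagent binding, and each polyreactivity label reflects the gate of origin.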

Sequence | polyreactivity (PSR sort gate)
QVQLVESGGGLVQAGGSLRLSCAASGSTFRWYAMGWYRQAPGKERELVASITWSGGGTYYADSVKGRFTISRDNAKNTVYFQMNSLKPEDTAVYYCNRRTWRYETRGDDYWGQGTQVTVSS | high polyreactivity
QGQLVESGGCLVQEGGSLRLSCAASGRIFLYYTMGWYRQAPGKERELVAAITRSGGSTYYADSVKGRFTISRDNAKNTVYLQMNSLQPVDTAVSYCNRAYVRYVPMNYWGQGTLVTVSS | high polyreactivity
QVQLVESGGGLVQAGGSLRLSCAASGSLFSAYAMGWYRQAPGKEREFVAAITRRGGNTYYADSVKGRYTISRDNAKNTVYLQMNSLKPDDTAVYYCAADAGGGPFDYCGQGTQVTVSS | low polyreactivity
QVQLVESGGGLVQAGGSLRLSCAASGFTFYWYDMGWYRQAPGKERELVSTISTGGGTNYADSVKGRFTISRDNAKNTVYLQMNSLKPEDNAVYYCAADGSAGYQWGYDFEGDYWGQGTEVTVSS | high polyreactivity
QVQHVESGGGLVQAGGSLRLSCAASGFTFYRYTMGWYRQAPGKERELVAAISRGGRTYYADSVKGRFTISRDNAKNTVYLQMNSLKPEDTAVYYCAARTWIARRGRYNYWGQGTQVTVSS | high polyreactivity
QVQLVESGGGLVQAGGSLRLSCAASGFIFSLYAMGRYRQATGKERELVAVITWSDGRTYYADSVKGRFTISRDNAKNTVYLQMNSLKPEDTAVYYCAAADWITEYDYWGQGTQVTVSS | low polyreactivity
QVQLVESGGGLVQAGGSLRLSCAASGSIFSYYAMGWYRQAPGKERELVATISVSGGNTYYADSVKGRFTISRDYAKNTVYLQMNSLKPEDTAVYYCAKYNWYRAWRYGYWGQGTQVTVSS | high polyreactivity
QVQLVESGGGLVQSGGSLRLSCAASGRIFFYYAMGGYRQAPGKERELVATIRDGGGTTYYADSVKRRFTISIDNAKNTVYLQMNSLKTDDTAFYYCNVDVWRKYYYWGQGTQVTVSS | low polyreactivity
QVQLVESGGGLVQAGGSLRLSCAASGSISIRNAMGWYRQAPGKERELVAAISRGGSTYYADSVKGRFTISRDNAKNTVYLQMNSLKPEDTAVYYCATDGGRYYRGREYAFKYYYWGQGTQVTVSS | high polyreactivity
QVQLEETGGGLVQAGGSLRLSCSASGRTLYYYAMGWYRQAHGKDRELVAAISKRGGSTYYADSVQGRFTISRDNAKNTVYLQINSLKPVDTAVFYCAASSGLDSWGQGTQVTVSS | high polyreactivity
HVRLQESGGGLVQAGGSLRQSCAASGAISPYYDMGWYRLAPGKEREFVASIAHGGTTYYADSVKGRFTTSRDNAKYNVYLRMNRLKPEDTAVYFCAAPKRYLGDYWGQGTQVTVSS | high polyreactivity
QVQLVESGGGLVQAGGSLRLSCAASGLTSVSNAMGWYRPAPGKERELVAAISSRGGITYYADSVKGRFTISRDNAKNTVYLQMNSLKPEDTAVYYCAKKTVQRGYYYWGQGTQVTVSS | high polyreactivity
QVQLVESGGGLVQAGGSLRLSCAASGYIFDLNAMGWSRQAPGKERELVAANSTGGGTYYADSVKGRFTISRDNAKNTVYLQMNILKPEDTAVYYCAADWGYWYAEYDYWGQGTQVTVSS | low polyreactivity
QVQLVESGGGLVQARGSLRLSCAASGSIFFRYTMGWYRPAPGKEWELVATITGSGSSTTYADSVKGRFTISRDNAKNTVYLQMNSLKPEDTAVSYCAAADIIDHSFPYDYWGQGTQVTVSS | low polyreactivity
QVQLVESGGGLVQAGGSLRLSCDASGRTFVRYAMGWYRQAPGKERELVARITSRGTSTYYADSVKGRFTISRDNAKNTVYLQMNSLKPEDTAVYYCNKVRTFRDKSRYDYWGQGTQVTVSS | low polyreactivity
QVQLVESGGGLVQAGGSLRLSCAASGRIFTYYAMGWYRQAPGKERELVAAISSGGSTYYADSVKGRFTISRDNAKNTVYLQMNSLKPEDTAVYYCAAEPWYYPYLSPTYGYWGHGTQVTVSS | low polyreactivity
QVQLVESGGGLVQAGGSLRLSCAASGRTFDLYAMGWYRQAPGKERELVAAISGRGGRTYYADSVKGRFTISRDNAKNTVYLQMNSLKPEDTAVYYCAARTGATSRIRFDYWGQGTQVTVSS | low polyreactivity
QVQLVESGGGLVQAGGSLRLSCAASGRIFVPYAMGWYRQAPGKERELVAAISRSSPTYYADSVKGRFTISRDNAKNSVYLQMNSLKQEDTAGYYCAAAYYATTPKADYHFRGYEYWGQGTQVTVSS | high polyreactivity
QVQLVESGGGLVQAGGSLRLSCAASGSTFLNNAMGWYRQAPGKERELVATITSGGITNYADSVKGRFTISRDNAKNTVYLQMNSLKPEDTAVYYCNADTWGFTYYYWGQGTQVTVSS | low polyreactivity
QVQLVESGGGLVQAGGSLRLSCAASGFISNGYAMGWYRQAPGKEREFVASISSSGGSTYYADSVKGRFTISRDIAKNTVYLQMNSLKTEDTAVYYCNARYWWVIKVKLGYWGQGTQVTVSS | low polyreactivity
QVQLVESGGGLVQAGGSLRLSCASSGRIFFTNAMGWYRQAPGKERELVAAIRSSGGRTYYADSVKGRFTISRDNAKNTVYLQMNSLKPEDTAVYYCNVVDGRHISHYNYWGQGTQVTVSS | high polyreactivity
QVQLVESGGGLVQAGGSLRLSCAASGRIFIVNAMGWYRQAPGKERELVAAIRTGGSNTYYADSVKGRFTISRDNAKNTVSLQMTSLKPEDTAVYYCNARSTRRINYWGQGTQVTVSS | high polyreactivity

Sequence | polyreactivity (PSR sort gate)
QVQLVESGGGLVQAGGSLRLSCAASGSTFVYMGWYRQAPGKEREFVAAITWSGGSTYYADSVKGRFTISRDNAKNTVYLQMNSLKPEDTAVNYCNAVSVIPGWARYYSWGQGTQVSVSS | low polyreactivity
QVQLVESGGGLVQAGGSLRLSCAASGSIFNKNVMGWYRQAPGKERELVAAITSGGGSTYYADSVKGRFTISRDNAKNTVYLQMNSLKPEDTAVYYCAAGRGLYEYNYWGQGTQVTVSS | high polyreactivity
QFQLVESVGGLVQAGGSLRLSCAASGFTFTAYAMGWYRQAPGTERELVAAISSGGSTYYADSVKGRFTISRDNAKNTVYLQMNSLKPEDTAVYYCAAVGVYTVKREYWGQGTQVTVSS | low polyreactivity
QVQLVESGGFLVQAGGSLRLSCAASGSTSYNYVMGWYRQAPRKERELVAGITWSDDITYYADSVKGRFSISRDNAKNTVYLQMNSLKPEDTAVYYCAAEDGPLYWRFPDEMDYWGQGTQVTVSS | low polyreactivity
QVQLVESGGGLVQAGGSLRLSCAASGFTFDANAMGWYRQAPGKERELVAAITRVGSTFYADSVKGRFTISRDNAKNTVYLQMNSLKPEDTAVYYCNAARDHVSGYDYWGQGTQVTVSS | low polyreactivity
QVQLVESGGGLVQAGGSLRLSCAASGRIFVGNAMVCYKQAPGKERELVAGITSRGGSTYYADSVKGRFTISRDNAKNTVYLQMNSLKQEDTAVYYCASYYRYPSWKFDYWGQGTQVTVSS | high polyreactivity
QVQLVESGGGLVQAGGSLRLSCAASGFFLGQYTMGWYRQAPGKERELVAAISSSGSTNYADSVKGRFTISRDNAKNTVYLQMNSLKPEDTAVYYCSIAGIRHVTSKFKGYHFGYWGQGTQVTVSS | low polyreactivity
QVQLVESGGGLVQAGGSLRLSCAASGFTFYKYAMGWYRQAPGKERELVAAISYRGGRTYYADSVKGRFTISRDNAKNTVYLQMNSLKPEDTAVYYCAARGYVWNIGRYYWGQGTEVTVSS | high polyreactivity
QVQLVESGGGLVQAGGSLRLSCAASGSNFVVNAMGWYRQAPGKERELVAAITQSGGSTFYADSVKGRFTISRDNAKNTVYLLMNSLKPEDSAVYYWGQGTQVTVSS | low polyreactivity
QVQLVESGGGLVQAGGSLSLSCAASGRIFSWYDMGWYRQAPGKERELVAAISSGGSTKYADSVKGRFTISRDNAKNTVYLQMNCLKPEDTAVYYCAARLPRRYTREGYWGQGTQVSVSS | high polyreactivity
QVQLVETGGGLVQAGGSLRLSCAASGRTFSGYAMGWSRQAPGKERELVASITWSGGSTYYADSVKGRFTISRDNAKNTVYLQMNSLKPDDTAVYYCARDSPRGRVGFNYWGQATQVTVSS | low polyreactivity
QVQLVESGGGLVQAVGSLRLSCAASGFIFSYYAMGWYRQAPGKERELVAAISRSGSITYYADSVKGRFTISRDNAKNTVYLQMNRLKPEDTAVYYCAARYWRRGSSGRLNYWGQGTQVTVSS | high polyreactivity
QVHLVESGGGLLQAGGSLRLSCAASGSTFSINGMGWYRQAPGKERELVAAITWRGTRTYYADSVKGRFTISRDNAKNTVYLEMNSLKPEVTAVYYCAATGSGEASFYYWGQGTQVTVSS | high polyreactivity
QVHLVESGGGLVQAGGSLRLSCAASGSIFRNNAMGWYRQAPGKARELVAVISRSGGSTYYADSVKGRFTISRDNAKNTVYLDMNSLKPEDTAVYYCDVGYWGRLGFRGYGYWGQGTQVTVSS | low polyreactivity
QVQLVESGGGLVQAGGSLRLSCAASGITFKRYTMGWYRQAPGKERELVAANSRSGGSTYYADSVKGRFTISRDTAKNTVYLQMNSLKPEDTAVYYCAAAVGGYNVAYDYWGQGTQVTVSS | high polyreactivity
QVQLVESGGGLVQAGGSLRLSCAASGSTFGYNAMGWYRQAPGKERELVAAISYSGGSTSYADSVKGRFTLSRDNEKNTVYVQMNSLKPVDAAVYYCARESYSQYSSQALEGYGYWGQGTQVTVSS | low polyreactivity
QVQLVESGGGLVQAGGSLRLSCAASGIFPWFAMGWYRQAPGKERELVAVITGGDSTNYADSVKGRFTISRDNAKNTVYLQMNSLKPEDTAVYYCAARNTGPVQYYYWGQGTQVTVSS | low polyreactivity
QVQLVETGGGLDQAGGSLRLRCAASGSIFLIYGMGWYRQAPGKERELDAAITARCGSTYYADSVKGRFTISRDNAKNTVYLLMNSLKPEDTAVYYCAADEYEALGKFQPYQFDYWGQGTQVTVSS | low polyreactivity
QVQLVESGGGLVQAGGSLRLSCAASGFIFYDYDMGWYRQAPGKERELVAAITYSGGSTYYADSVKGRFTISRDNAKNTVYLQMNSLKPEDTAVYYCAAVKSRYAEAVDYYYWGLGTQVTVSS | low polyreactivity
QVQLVESGGGLVQAGGSLRLSCAASGRTAMGWYRHAPGKEREVVAAITGSGVSTYADSVKGRFTISRDNAKNTVYLQMNSLKPEDTAVYYCAADLPFVGGDYWGQGTQVYVSS | low polyreactivity
QVQLVESGGGLFQAGGSLRLSCAASGRTFYNNAMGWYRQAPGKERELVATINNRGGTTYYADSVKGRFTISRDNAKNTVYLQMNSLKPEDTAVYYCAKSAQRYSYRYYYWGQGTQVTVSS | high polyreactivity
